Results taken from article PMC3589825, “The AFF4 scaffold binds human P-TEFb adjacent to HIV Tat” (eLife, 2013).
GABA = NCCCC(=O)O

What was measured:
Conditions in all cases: both partners purified
[1] = target: T1, Tat-P-TEFb complex (HIV-1 Tat 1–86, CDK9 1–330, cyclin T1 1–264) (human | HIV-1, UniProt P50750;O60563;P04608); assay: fluorescence polarisation
T1 construct: also called P-TEFb-Tat; not shown: His-tag, N-terminal, cleaved; copies: + +

[2] = target: T2, P-TEFb (CDK9 1–330 / cyclin T1 1–264) (human, UniProt P50750 1-330; O60563 1-264); assay: fluorescence polarisation
T2 construct: also called positive transcription elongation factor b; source: High5 insect cells (baculovirus), purified (His-Trap, TEV digest, His-Trap); not shown: His-tag, N-terminal, cleaved
T2 sequence (P50750 1-330, chain 1 of 2): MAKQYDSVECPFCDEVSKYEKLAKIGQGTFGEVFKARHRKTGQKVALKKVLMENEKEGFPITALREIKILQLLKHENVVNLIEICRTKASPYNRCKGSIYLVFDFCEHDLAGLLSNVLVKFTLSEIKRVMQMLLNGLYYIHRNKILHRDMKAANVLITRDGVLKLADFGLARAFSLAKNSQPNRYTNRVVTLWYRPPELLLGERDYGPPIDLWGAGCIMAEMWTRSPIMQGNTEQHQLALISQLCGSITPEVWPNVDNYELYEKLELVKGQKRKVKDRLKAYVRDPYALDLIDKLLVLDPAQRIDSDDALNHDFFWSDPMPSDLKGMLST
T2 sequence (O60563 1-264, chain 2 of 2): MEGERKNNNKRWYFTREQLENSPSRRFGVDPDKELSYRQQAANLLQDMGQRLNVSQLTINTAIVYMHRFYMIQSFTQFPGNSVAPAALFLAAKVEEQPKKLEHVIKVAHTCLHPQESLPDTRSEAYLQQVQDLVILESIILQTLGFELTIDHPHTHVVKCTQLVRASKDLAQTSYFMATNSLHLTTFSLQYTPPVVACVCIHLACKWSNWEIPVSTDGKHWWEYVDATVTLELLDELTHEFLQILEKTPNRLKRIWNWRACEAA

[3] = target: T3, cyclin T1 (CycT1), purified alone, wild type (human, UniProt O60563 1-264); assay: fluorescence polarisation
T3 construct: source: purified
T3 sequence (O60563 1-264): as the sequence (O60563 1-264, chain 2 of 2) above

[4] = target: T1, Tat-P-TEFb complex (HIV-1 Tat 1–86, …); assay: fluorescence polarisation; competition titration of unlabeled AFF4 segments against 5 nM fluorescent peptide with 75 nM CycT1, 45 nM P-TEFb or 6 nM Tat-P-TEFb; 25 mM HEPES pH 7.5, 100 mM NaCl, 10% glycerol, 0.1% NP40, 0.5 mM TCEP
[5] = target: T2, P-TEFb (CDK9 1–330 / cyclin T1 1–264); assay: as above
[6] = target: T3, cyclin T1 (CycT1), purified alone, wild …; assay: as above

Binder | Kd [1] | Kd [2] | Kd [3] | Kd [4] | Kd [5] | Kd [6]
{FAM-GABA}-SPLFAEPYKVTSKEDKLSSRIQSMLGNYDEMKDFIG-NH2 (source: synthetic peptide (University of Utah DNA/Peptide Facility)) [fluorescein-labeled AFF4(32–67) peptide] | 8.8 ± 0.8 nM | 36 ± 6 nM | 104 ± 17 nM | – | – | –
AFF4(2–73) (domain or fragment, human, UniProt Q9UHB7 2-73, looked up, source: E. coli Rosetta(DE3)pLysS, purified (His-Trap, TEV digest, His-Trap); not shown: His-tag, N-terminal, cleaved) NREDRNVLRMKERERRNQEIQQGEDAFPPSSPLFAEPYKVTSKEDKLSSRIQSMLGNYDEMKDFIGDRSIPK | – | – | – | 0.85 ± 0.15 nM | 10 ± 1 nM | 130 ± 18 nM
AFF4(2–363) (domain or fragment, human, UniProt Q9UHB7 2-363, looked up) NREDRNVLRMKERERRNQEIQQGEDAFPPSSPLFAEPYKVTSKEDKLSSRIQSMLGNYDEMKDFIGDRSIPKLVAIPKPTVPPSADEKSNPNFFEQRHGGSHQSSKWTPVGPAPSTSQSQKRSSGLQSGHSSQRTSAGSSSGTNSSGQRHDRESYNNSGSSSRKKGQHGSEHSKSRSSSPGKPQAVSSLNSSHSRSHGNDHHSKEHQRSKSPRDPDANWDSPSRVPFSSGQHSTQSFPPSLMSKSNSMLQKPTAYVRPMDGQESMEPKLSSEHYSSQSHGNSMTELKPSSKAHLTKLKIPSQPLDASASGDVSCVDEILKEMTHSWPPPLTAIHTPCKTEPSKFPFPTKESQQSNFGTGEQK | – | – | – | 0.6 ± 0.1 nM | 7 ± 1 nM | –
SPLFAEPYKVTSKEDKLSSRIQSMLGNYDEMKDFIG [unlabeled AFF4(32–67) peptide] | – | – | – | 4.5 ± 0.6 nM | 36 ± 4 nM | 102 ± 10 nM
